A short description of this data set: protein stability index of a GFP-peptide fusion (GPS, HEK-293T) (PSI 1-6); higher = more stable.
[1] abbreviates: treatment: DMSO, c terminus: a fixed tail appended.
Where [2] appears, read: treatment: MLN4924 1 uM, 8 h, c terminus: a fixed tail appended.
Setting [3] is: treatment: DMSO, c terminus: native.
Where [4] appears, read: treatment: MLN4924 1 uM, 8 h, c terminus: native.

± gives the standard deviation.
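Further: 24-mer peptide tiles fused after GFP, lentivirally expressed, FACS-sorted into six equal bins by GFP/DsRed ratio, decoded by Illumina sequencing, PSI is the read-weighted mean bin number.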

As to PVRAAASSPVTTLTQTMHDLAGLG [CDC25B], the protein stability index is 4.03 ± 0.24 under setting [1] and 3.93 ± 0.19 under setting [2].

As for YVQTVDFMRTDNTCVNLLLEASNY [KLHL13], the protein stability index reads like this: under setting [1], 2.6 ± 0.71; under setting [2], 2.6 ± 0.66.

With TAPEEVPKVSDQALVSAHSEWQRK [DMRTC1], the protein stability index is, setting by setting: under setting [1], 4.88 ± 0.61; under setting [2], 5.07 ± 0.39.

Take DTLRRRLLAPEAGSHPQQTQKLEE [TOR1AIP2]: the protein stability index is, setting by setting: under setting [1], 5.35 ± 0.3; under setting [2], 5.41 ± 0.15.

Consider KDTVICAMKITQEPQGLGYWEAWR [SPACA3], for which the protein stability index turned out to be 2.27 ± 0.49 under setting [1] and 2.22 ± 0.23 under setting [2].

As for YQELMSLKLALDMEIATYRKLLES [KRT71], the protein stability index reads like this: under setting [1], 2.38 ± 0.32; under setting [2], 2.16 ± 0.22.

In the case of SLVAILLVFLITAILVKVQLDALP [SLC29A1], the protein stability index reads like this: under setting [1], 2.35 ± 0.6; under setting [2], 2.54 ± 0.58.

In turn, HVLEGLFRTDPEAKVKLVFVEDQA [ZSWIM9] gave a protein stability index under setting [1] of 2.51 ± 0.19 and a protein stability index under setting [2] of 2.74 ± 0.24.

Take RTHTGEKPYKCTLCGENFSHRSNL [ZNF263]: the protein stability index under setting [1] came out at 2.43 ± 0.27 and the protein stability index under setting [2] is 2.79 ± 0.53.

In turn, VVGWFVLFYKPGIVLLLALAKYLK [GULP1] returned a protein stability index under setting [1] of 2.25 ± 0.41 and a protein stability index under setting [2] of 2.37 ± 0.56.

SSSKGTIRLCDMRASALCDRHTKF [PPP2R2B]: the protein stability index came out at 3.01 ± 0.048 under setting [1] and 3.14 ± 0.078 under setting [2].

Regarding CAPCPRRSEPVVQCQYPSGAEAG [IRX6], the protein stability index is, setting by setting: under setting [3], 2.67 ± 0.7; under setting [4], 2.3 ± 0.41.

Take WASCLQYDFDTQYAFVGDYSGQIT [WDFY1]: the protein stability index stood at 2.43 ± 0.39 under setting [1] and 2.2 ± 0.21 under setting [2].

Take FCPLSLWRWQLYAAQSTKSPWNFL [CLPTM1]: the protein stability index reads like this: under setting [1], 2.66 ± 0.62; under setting [2], 2.9 ± 0.51.

On to DKPGTTQIVQLTQQVDTNISVILP [DENND6A], for which the protein stability index was found to be 3.48 ± 0.23 under setting [1] and 3.68 ± 0.38 under setting [2].

In the case of ECPTCGHSYNVTQRRPRVLSCLHS [RNF208], the protein stability index runs as follows: under setting [1], 3.22 ± 0.17; under setting [2], 3.45 ± 0.49.

MNKSENLLFAGSSLASQVHAAAVN [INVS] yielded a protein stability index under setting [1] of 3.11 ± 0.24 and a protein stability index under setting [2] of 3.35 ± 0.34.

As for SSVQSYPGSASLAQSRLEDPGQDL [DLX1], the protein stability index reads like this: under setting [1], 4.89 ± 0.28; under setting [2], 5.09 ± 0.19.

In the case of SFRKFRYGYNNVVTIPAGATHILV [ADAMTS4], the protein stability index runs as follows: under setting [1], 2.64 ± 0.28; under setting [2], 2.99 ± 0.51.

Turning to DTYNDMATLFFNPQESAILQLFHQ [CLCN6], the protein stability index by setting is: under setting [1], 2.6 ± 0.34; under setting [2], 2.43 ± 0.21.

Turning to PSLPSCLCSFLLLLLLQVSSSYAG [MOG], the protein stability index reads like this: under setting [1], 2.44 ± 0.048; under setting [2], 2.77 ± 0.34.

For the sequence PLDDALLSFAHANCTLIISYQKPK [DPCD], the protein stability index was 2.17 ± 0.2 under setting [1] and 2.22 ± 0.21 under setting [2].

Take VDGPDLEMLTGQERVALANRKREC [FKBP8]: the protein stability index under setting [1] worked out at 4.96 ± 0.16 and the protein stability index under setting [2] came to 5.14 ± 0.2.

As for AREGSSEPWLPLTDGRSPRRSRDP [PLEKHN1], the protein stability index turned out to be 5.17 ± 0.43 under setting [1] and 5.1 ± 0.098 under setting [2].

Take QALGIPATECEFVGSLPVIVVGRL [LPCAT4]: the protein stability index reads like this: under setting [1], 2.38 ± 0.58; under setting [2], 2.29 ± 0.66.

Turning to NKWTVQYNVSPLSWNVAVKFLMAR [PTPN9], the protein stability index was 2.47 ± 0.54 under setting [1] and 2.15 ± 0.38 under setting [2].

With ESLVPFIVNDNITNNFFRFLCMT [DYNC2LI1], the protein stability index was 3.91 ± 0.45 under setting [3] and 2.63 ± 0.67 under setting [4].

In the case of YQSGGRLKRPVNVPFDIFTEEVKF [KCNA4], the protein stability index was found to be 2.42 ± 0.26 under setting [1] and 2.8 ± 0.57 under setting [2].

For the sequence AGLGPGSRRPLDEAVAGAEGREAP [DENND6A], the protein stability index is, setting by setting: under setting [1], 5.39 ± 0.23; under setting [2], 5.04 ± 0.39.

As for SRGTSQTPNASSPGNPTALANGTV [LPCAT4], the protein stability index under setting [1] came out at 4.73 ± 0.051 and the protein stability index under setting [2] is 4.77 ± 0.068.

GVVDSEDLPLNISREMLQQSKILK [HSP90AB1]: the protein stability index by setting is: under setting [1], 4.09 ± 0.22; under setting [2], 4.14 ± 0.28.

For the sequence ENLIMFQNLANEEVRKLTQRLEEM [MATN2], the protein stability index reads like this: under setting [1], 3.58 ± 0.094; under setting [2], 3.17 ± 0.47.

For the sequence SEFQAALSRKVAELVHFLLLKYRA [MAGEA3], the protein stability index is 2.57 ± 0.56 under setting [1] and 2.48 ± 0.51 under setting [2].

Regarding VAAALRYLQIFATRRSCIDESQIS [FAM189A2], the protein stability index was 2.37 ± 0.37 under setting [1] and 2.41 ± 0.17 under setting [2].

As for ASTEADKRLSRFDIEMSMRGDIFE [NLN], the protein stability index is 4.02 ± 0.57 under setting [1] and 4.14 ± 0.27 under setting [2].

On to LWDRAYVRLKPALQRLDFSVRGYM [RETREG3], for which the protein stability index turned out to be 2.5 ± 0.43 under setting [1] and 2.69 ± 0.65 under setting [2].

Sequence ILNSMNSLRKSNTLCDVTLRVEQK [KLHL12] registered a protein stability index under setting [1] of 2.65 ± 0.18 and a protein stability index under setting [2] of 2.9 ± 0.33.

On to LTEHQRIHTGIKPHQCSECGRAFS [ZNF649], for which the protein stability index was 3.58 ± 0.064 under setting [1] and 3.69 ± 0.38 under setting [2].

In the case of PAGAGPSPTFPALGIGMDSCVIPL [SEPHS2], the protein stability index under setting [1] was 3.14 ± 0.43 and the protein stability index under setting [2] was 3.26 ± 0.34.

RGIDIIKWMERYLRDKTVMIIVAI [TRAF3IP2] registered a protein stability index under setting [1] of 2.25 ± 0.31 and a protein stability index under setting [2] of 2.33 ± 0.42.

FFEDGDVQRHLYLQDVIMQVADVP [ZNF511] returned a protein stability index under setting [1] of 2.82 ± 0.29 and a protein stability index under setting [2] of 2.81 ± 0.43.

As to TISFICRELDAISTNEEEKEENEA [PRIM1], the protein stability index under setting [1] is 5.16 ± 0.26 and the protein stability index under setting [2] was found to be 5.16 ± 0.1.

On to PPEQGKIFIARRSLLDELLEVDHI [SOAT1], for which the protein stability index was determined as 2.76 ± 0.2 under setting [1] and 2.93 ± 0.32 under setting [2].

Take SEDVNWGYEKRNLARVPKLDLKRQ [CHGB]: the protein stability index reads like this: under setting [1], 4.34 ± 0.3; under setting [2], 4.27 ± 0.25.

As to IVETLCIIWFSFELVVRFFACPSK [KCNA1], the protein stability index was 3.11 ± 0.19 under setting [1] and 3.15 ± 0.32 under setting [2].

For the sequence NLLESKADGIEVSYNACGVLSHIM [ZER1], the protein stability index turned out to be 2.25 ± 0.08 under setting [1] and 2.31 ± 0.28 under setting [2].

Turning to DHNEAMKPEEPPQNLLREKIMKLP [PCMTD1], the protein stability index was found to be 4.63 ± 0.32 under setting [1] and 4.66 ± 0.12 under setting [2].

Regarding QRQAIKGAFYRRAQRLRPQDEPRQ [KCNG1], the protein stability index under setting [1] was 3.87 ± 0.24 and the protein stability index under setting [2] was determined as 4.16 ± 0.22.

With YSTRYGSPKRQLQFYRNLGKSGLR [KCNAB2], the protein stability index by setting is: under setting [1], 2.59 ± 0.18; under setting [2], 2.69 ± 0.19.

Turning to QEIIKTTEQLIEAVNNGDFEAYAK [CAMK2B], the protein stability index was 4.27 ± 0.17 under setting [1] and 4.26 ± 0.15 under setting [2].

Turning to VKILEPKTKEVQHNCQLHRISFCA [GULP1], the protein stability index by setting is: under setting [1], 2.33 ± 0.22; under setting [2], 2.25 ± 0.17.

For the sequence VGKSEILESLQDGAAESPYSHLGG [RAB40A], the protein stability index runs as follows: under setting [1], 4.56 ± 0.27; under setting [2], 4.46 ± 0.19.

For TLNILLYEAQDGRGPDNALLEATG [KCTD10], the protein stability index is, setting by setting: under setting [1], 2.92 ± 0.21; under setting [2], 3.29 ± 0.31.

On to IQSKDGKSPLHMTAVHGRFTRSQT [ANKRD44], for which the protein stability index is 3.84 ± 0.32 under setting [1] and 3.9 ± 0.36 under setting [2].

For the sequence FRRTDGRCLIWGRKPKVIECSYTS [DHCR7], the protein stability index by setting is: under setting [1], 2.35 ± 0.17; under setting [2], 2.34 ± 0.33.

For MGFVPHNGSLYGQASSERLGLDNR [ADAMTSL2], the protein stability index was 3.59 ± 0.38 under setting [1] and 3.66 ± 0.35 under setting [2].

Turning to FMHSFEEKYGRAHPVFYQGTYSQA [FAF2], the protein stability index under setting [1] came to 2.18 ± 0.21 and the protein stability index under setting [2] turned out to be 2.42 ± 0.28.

As to ISKMEPLEIPVETITSEVIEKCTT [CRY1], the protein stability index was found to be 4.08 ± 0.64 under setting [1] and 4.32 ± 0.2 under setting [2].

With KSLSIQYLELDRLVWRNSIRSSFI [FBXO39], the protein stability index by setting is: under setting [1], 2.51 ± 0.64; under setting [2], 2.28 ± 0.17.

In the case of NNLAASQLKLDHYRAALRSCSLVL [FKBP8], the protein stability index was determined as 2.62 ± 0.11 under setting [1] and 2.35 ± 0.27 under setting [2].

As for SSCTHVTGNYRKGNAHLGYSLVTH [ADAMTSL2], the protein stability index worked out at 2.92 ± 0.7 under setting [1] and 2.77 ± 0.42 under setting [2].

Consider HEEEPLGTAGPLALARDLLSETAD [GMPPB], for which the protein stability index is, setting by setting: under setting [1], 5.38 ± 0.42; under setting [2], 5.18 ± 0.15.

On to SPSGAALPLPLSLAPPPLPLPAAA [ZBTB22], for which the protein stability index runs as follows: under setting [1], 3.92 ± 0.25; under setting [2], 4.2 ± 0.29.

Turning to LVALAEQHAVQELTKAATSGVGID [RHOBTB1], the protein stability index is, setting by setting: under setting [1], 4.08 ± 0.29; under setting [2], 4.18 ± 0.19.

QVNGHPDPFDEIILFSLPPALDWD [PTPN9]: the protein stability index turned out to be 2.27 ± 0.23 under setting [1] and 2.31 ± 0.4 under setting [2].

As to RKLSFSHSDHSSEMSLPEVQKDKY [SPATS1], the protein stability index under setting [1] turned out to be 4.85 ± 0.15 and the protein stability index under setting [2] is 4.93 ± 0.2.

GVVHPSNEVLSSDILPRWAIIGWL [INTS3]: the protein stability index turned out to be 2.13 ± 0.41 under setting [1] and 2.18 ± 0.45 under setting [2].

Regarding KTSLAPYVKVFEHFLENLDKSRKG [PRIM1], the protein stability index by setting is: under setting [1], 2.54 ± 0.39; under setting [2], 3.12 ± 0.46.

For the sequence MASSAAGCVVIVGSGVIGRSWAML [CRYL1], the protein stability index reads like this: under setting [1], 3.7 ± 0.13; under setting [2], 2.89 ± 1.8.

Sequence WREFHYIQSKLGIVSLLLGTIHAL [STEAP1] showed a protein stability index under setting [1] of 2.96 ± 0.56 and a protein stability index under setting [2] of 3.15 ± 0.69.

EQDSGVQVEGLTVQYLGQAPELLG [ADAMTS4] had a protein stability index under setting [1] of 4.38 ± 0.13 and a protein stability index under setting [2] of 4.91 ± 0.34.

Regarding LYGFLLTFGFITMTPQLFINYKLK [CLPTM1], the protein stability index reads like this: under setting [1], 3.12 ± 0.64; under setting [2], 3.44 ± 0.32.

(Values after the supplement of paper PMC10567573.)
